This note sets out measurements from patent publication US12428446B2, “Peptide compound or pharmaceutically acceptable salt thereof” (Eyebio Korea, priority 2019, dated 2025).

*1 amine or outer side, *2 acyl side, *3 side chain or, on linkers, in order; H or OH if unused. Primed or numbered codes have the meaning given here. Where no end group is shown, it is not given here. [ ]: non-standard residue; d: D form. The star is where a group is joined. Pro(trans-4-NH2) = O=C([C@@H]1C[C@@H](N[*:3])CN1[*:1])[*:2]; Pro(cis-4-F) = O=C(O)[C@@H]1C[C@H](F)CN1; Pro(4,4-Me2) = CC1(C)CN[C@H](C(=O)O)C1; Asu′ = aspartimide (aminosuccinimide); Hyp = O=C(O)[C@@H]1C[C@@H](O)CN1; Tle = CC(C)(C)[C@H](N)C(=O)O; OiPr = CC(C)O*

This data set can be described thus: Evaluation of dissolution stability (content change on storage in dissolved state). The format is physicochemical. Particulars: 1 mg/1 ml dissolved state, 40° C. and RH 75%.

In the case of “4,4-dimethyl Pro-Gly-Gln-Asp-Gly-Leu-Ala ([Pro(4,4-Me2)]GQDGLA) [Example 57]”, the “Day 1 content (%)” value came out at 75.20%, the “Day 3 content (%)” value worked out at 71.82%, the “Day 7 content (%)” value is 53.88% and the “Initial content (%)” value turned out to be 91.95%.
For “Hyp-Gly-Gln-Leu-Val-Leu ([Hyp]GQLVL) [Example 99]” the same measures were 99.44%, 99.28%, 99.15% and 99.45%.
For “Hyp-Gly-Gln-Ala-Gly ([Hyp]GQAG) [Example 13]” the same measures were 98.39%, 98.04%, 97.64% and 98.51%.
For [Hyp]G[dQ]DGLA [Example 63] the same measures were 88.74%, 81.41%, 64.20% and 94.37%.
Regarding [Hyp]G[dQ]DGL [Example 60], the “Day 1 content (%)” value turned out to be 92.72%, the “Day 3 content (%)” value was determined as 88.92%, the “Day 7 content (%)” value was found to be 58.84% and the “Initial content (%)” value is 97.21%.
Consider PGQDGLA [Example 78], for which the “Day 1 content (%)” value amounted to 92.18%, the “Day 3 content (%)” value is recorded as 85.14%, the “Day 7 content (%)” value stood at 74.01% and the “Initial content (%)” value was 97.41%.
On to “Hyp-Gly-Gln-Asp-Gly-Leu-Ala-Gly ([Hyp]GQDGLAG) [Example 15]”, for which the “Day 1 content (%)” value turned out to be 91.06%, the “Day 3 content (%)” value is on record as 81.63%, the “Day 7 content (%)” value turned out to be 70.56% and the “Initial content (%)” value is listed as 91.84%.
Turning to “Hyp-Gly-Gln-Ala-Val-Leu ([Hyp]GQAVL) [Example 124]”, the “Day 1 content (%)” value stood at 99.22%, the “Day 3 content (%)” value is listed as 99.11%, the “Day 7 content (%)” value stood at 98.97% and the “Initial content (%)” value came to 99.40%.
For “Hyp-Gly-Gln-Asp-Leu-Leu-Ala ([Hyp]GQDLLA) [Example 38]” the same measures were 92.19%, 88.19%, 85.93% and 97.06%.
Turning to “Hyp-Gly-Gln-Asp (isopropyl ester)-Gly-Leu-Ala (isopropyl ester) [Example 114]”, the “Day 1 content (%)” value turned out to be 75.01%, the “Day 3 content (%)” value came to 56.84%, the “Day 7 content (%)” value was found to be 32.74% and the “Initial content (%)” value is reported as 84.91%.
For “Hyp-Gly-Gln-Asn-Gly-Leu-Ala ([Hyp]GQNGLA) [Example 79]” the same measures were 97.87%, 81.04%, 76.89% and 94.36%.
Taken in the same sequence, the figures for “Hyp-Gly-Gln-Asp-Gly-Pro-Lys ([Hyp]GQDGPK) [Example 28]” were 98.50%, 97.37%, 96.19% and 99.14%.
For “Hyp-Gly-Gln-Ala-Val ([Hyp]GQAV) [Example 119]” the same measures were 96.33%, 96.18%, 95.89% and 96.39%.
In the case of “Hyp-Gly-Gln-Glu-Gly ([Hyp]GQEG) [Example 67]”, the “Day 1 content (%)” value came out at 99.14%, the “Day 3 content (%)” value was 98.75%, the “Day 7 content (%)” value is 98.07% and the “Initial content (%)” value was determined as 98.36%.
For “Hyp-Gly-Gln-Asu-Gly-Leu ([Hyp]GQ[Asu′]GL) [Example 101]”, the “Day 1 content (%)” value worked out at 86.61%, the “Day 3 content (%)” value was determined as 86.38%, the “Day 7 content (%)” value was 83.40% and the “Initial content (%)” value is on record as 88.72%.
Taken in the same sequence, the figures for “trans-4NH2-Pro-Gly-Gln-Asp-Gly ([Pro(trans-4-NH2)]GQDG) [Example 42]” were 65.09%, 52.07%, 37.87% and 71.84%.
For “Hyp-Gly-Gln-Asu-Gly-Leu-Ala ([Hyp]GQ[Asu′]GLA) [Example 102]” the same measures were 90.18%, 85.07%, 81.09% and 92.47%.
For “Hyp-Gly-Gln-Asp-Ala ([Hyp]GQDA) [Example 33]” the same measures were 96.68%, 89.94%, 86.76% and 99.46%.
Take “Hyp-Gly-D Gln-Asp-Gly ([Hyp]G[dQ]DG) [Example 58]”: the “Day 1 content (%)” value came to 98.01%, the “Day 3 content (%)” value was 97.85%, the “Day 7 content (%)” value is recorded as 97.56% and the “Initial content (%)” value is on record as 98.03%.
For “Hyp-Gly-Gln-Asp (isopropyl ester)-Gly-Leu-Ala ([Hyp]GQD(OiPr)GLA) [Example 117]” the same measures were 90.61%, 85.37%, 76.88% and 94.77%.
For “Hyp-Gly-Gln-D Asp-Leu ([Hyp]GQ[dD]L) [Example 125]” the same measures were 97.15%, 95.07%, 88.48% and 98.28%.
Taken in the same sequence, the figures for “Hyp-Gly-Gln-Asn-Gly-Leu ([Hyp]GQNGL) [Example 81]” were 93.01%, 92.10%, 89.51% and 95.87%.
In the case of “Hyp-Gly-Gln-Glu-Leu-Leu ([Hyp]GQELL) [Example 88]”, the “Day 1 content (%)” value amounted to 98.94%, the “Day 3 content (%)” value was found to be 98.07%, the “Day 7 content (%)” value is reported as 97.37% and the “Initial content (%)” value was 99.23%.
As to “Gln-Asu-Gly-Leu-Ala-Gly (Q[Asu′]GLAG) [Example 118]”, the “Day 1 content (%)” value stood at 92.71%, the “Day 3 content (%)” value came to 85.67%, the “Day 7 content (%)” value came to 79.33% and the “Initial content (%)” value was found to be 96.15%.
With “Hyp-Gly-Gln-Glu-tert Leu-Leu-Ala ([Hyp]GQE[Tle]LA) [Example 93]”, the “Day 1 content (%)” value is given as 98.35%, the “Day 3 content (%)” value turned out to be 98.05%, the “Day 7 content (%)” value turned out to be 97.79% and the “Initial content (%)” value is listed as 98.39%.
As to “cis-4F Pro-Gly-Gln-Asp-Gly-Leu-Ala ([Pro(cis-4-F)]GQDGLA) [Example 51]”, the “Day 1 content (%)” value is reported as 83.35%, the “Day 3 content (%)” value was determined as 72.55%, the “Day 7 content (%)” value was 49.31% and the “Initial content (%)” value amounted to 92.07%.
Taken in the same sequence, the figures for QEGLAG [Example 70] were 90.84%, 88.52%, 85.77% and 92.41%.
